Reference: paper PMC3291655, “LEDGF/p75-Independent HIV-1 Replication Demonstrates a Role for HRP-2 and Remains Sensitive to Inhibition by LEDGINs” (PLoS Pathogens, 2012)

How the values were obtained:
[1] = molecular target: T1, MBP-LEDGF/p75(325-530), maltose binding protein fusion of the C-terminal end of LEDGF/p75 (human, UniProt O75475-1 325-530); assay: AlphaScreen or HTRF; IN-His6 titrated (2-fold dilutions from 500 to 1.9 nM) against 10 nM MBP fusion; anti-MBP donor beads and Ni2+-chelate acceptor beads; 25 mM Tris-HCl pH 7.4, 150 mM NaCl, 1 mM MgCl2, 0.1% Tween-20, 0.1% BSA; 1 h at 4°C, then 1 h at RT with beads; apparent KD, one-site specific binding with ligand depletion; details: both partners purified
T1 construct: also called MBP-LEDGF_(325–530); LEDGF_(325–530); source: E. coli BL21(DE3), purified (amylose resin)
T1 sequence (looked up): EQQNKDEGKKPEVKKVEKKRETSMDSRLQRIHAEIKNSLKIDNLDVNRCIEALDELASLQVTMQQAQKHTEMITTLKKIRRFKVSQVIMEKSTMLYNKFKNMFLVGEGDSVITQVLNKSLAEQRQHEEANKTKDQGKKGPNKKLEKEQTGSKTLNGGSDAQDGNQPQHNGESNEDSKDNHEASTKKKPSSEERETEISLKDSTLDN

[2] = molecular target: T2, MBP-HRP-2(448-670), maltose binding protein fusion of the C-terminal part of Hepatoma-derived growth factor … (human, UniProt Q7Z4V5-2 448-670); assay: as above; details: both partners purified
T2 construct: Hepatoma-derived growth factor related protein 2 (HRP-2), human, C-terminal part aa 448-670, which holds the IBD (aa 470-593); the range called the C-terminal end stops at 670, which fits the 670-residue isoform; amplified from p3xFlagHRP-2 and ligated into pMAL-c2E; source: E. coli, purified (amylose resin)
T2 sequence (looked up): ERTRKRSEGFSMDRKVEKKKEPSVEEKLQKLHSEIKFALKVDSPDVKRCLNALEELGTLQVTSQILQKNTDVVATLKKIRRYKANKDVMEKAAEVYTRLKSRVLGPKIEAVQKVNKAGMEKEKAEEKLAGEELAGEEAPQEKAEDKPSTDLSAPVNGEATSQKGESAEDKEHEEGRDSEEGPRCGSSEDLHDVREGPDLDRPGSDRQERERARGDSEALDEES

B1: HIV-1 integrase with a C-terminal His6 tag (enzyme)
chain: FLDGIDKAQEEHEKYHSNWRAMASDFNLPPVVAKEIVASCDKCQLKGEAMHGQVDCSPGIWQLDCTHLEGKVILVAVHVASGYIEAEVIPAETGQETAYFLLKLAGRWPVKTVHTDNGSNFTSTTVKAACWWAGIKQEFGIPYNPQSQGVIESMNKELKKIIGQVRDQAEHLKTAVQMAVFIHNFKRKGGIGGYSAGERIVDIIATDIQTKELQKQITKIQNFRVYYRDSRDPVWKGPAKLLWKGEGAVVIQDNSDIKVVPRRKAKIIRDYGKQMAGDDCVASRQDED
Kd [1]: 6.6 nM
Kd [2]: 89.8 nM
